Assay [1] concerns the target T1, cyIL1RAP-His (Lake Pharma) (cynomolgus monkey, UniProt A0A2K5X5J5 21-367).
T1 construct: Bought protein (Lake Pharma, lot 16205819371); also called cynomolgus IL1RAP; monkey IL1RAP; not shown: His tag
T1 sequence: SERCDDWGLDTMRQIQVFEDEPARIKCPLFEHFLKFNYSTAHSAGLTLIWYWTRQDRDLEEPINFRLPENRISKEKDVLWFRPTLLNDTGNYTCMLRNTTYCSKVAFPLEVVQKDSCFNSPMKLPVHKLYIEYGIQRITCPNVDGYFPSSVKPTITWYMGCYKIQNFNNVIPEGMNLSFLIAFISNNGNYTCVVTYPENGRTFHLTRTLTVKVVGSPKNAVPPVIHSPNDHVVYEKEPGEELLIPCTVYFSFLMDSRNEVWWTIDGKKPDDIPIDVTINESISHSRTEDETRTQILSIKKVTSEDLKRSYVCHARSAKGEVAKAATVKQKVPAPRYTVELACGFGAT
As to the kind of experiment: Octet BLI; mAb captured on anti-mouse IgG Fc sensor; cyIL1RAP-His analyte. Here is the method: (§1) Antibodies were diluted in kinetics buffer (0.1% BSA, 0.02% Tween-20 and 0.05% NaN₃ in PBS) and loaded onto 16 channel anti-mouse IgG Fc capture sensors (AMC, Cat #2001073; Sartorius, Göttingen, Germany). Human, huIL1RAP-His (Sino Biological, lot: MB08MA1301), and monkey, cyIL1RAP-His (Lake Pharma, NY, USA; lot:16205819371) proteins were titrated starting from the highest concentration of 100 nM and followed by 50 nM and 25 nM. Purified antibodies were loaded at 5 μg/ml in kinetics buffer. The experimental parameters selected to determine the kinetic constants were Baseline for 60 s, Loading of antibody to sensor for 180 s, Association of analyte to antibody for 120 s, Dissociation for 1200 s and Regeneration in 10 mM Glycine pH 1.7 for 4×30 s.
(§2) Regeneration cycle tracking was selected for 12 cycles. Binding to human and cynomolgus IL1RAP was measured and KD (M) kinetics were calculated. Also, the disassociation rate (Kdis) (1/s) and association rate (Kon) (1/Ms) kinetics were calculated (data not shown).

Assay [2] has as its target T2, IL1RAP on HEK-Blue IL1β / HEK-Blue IL33 reporter cells (UniProt Q9NPH3 21-570, limits assumed).
T2 sequence (looked up): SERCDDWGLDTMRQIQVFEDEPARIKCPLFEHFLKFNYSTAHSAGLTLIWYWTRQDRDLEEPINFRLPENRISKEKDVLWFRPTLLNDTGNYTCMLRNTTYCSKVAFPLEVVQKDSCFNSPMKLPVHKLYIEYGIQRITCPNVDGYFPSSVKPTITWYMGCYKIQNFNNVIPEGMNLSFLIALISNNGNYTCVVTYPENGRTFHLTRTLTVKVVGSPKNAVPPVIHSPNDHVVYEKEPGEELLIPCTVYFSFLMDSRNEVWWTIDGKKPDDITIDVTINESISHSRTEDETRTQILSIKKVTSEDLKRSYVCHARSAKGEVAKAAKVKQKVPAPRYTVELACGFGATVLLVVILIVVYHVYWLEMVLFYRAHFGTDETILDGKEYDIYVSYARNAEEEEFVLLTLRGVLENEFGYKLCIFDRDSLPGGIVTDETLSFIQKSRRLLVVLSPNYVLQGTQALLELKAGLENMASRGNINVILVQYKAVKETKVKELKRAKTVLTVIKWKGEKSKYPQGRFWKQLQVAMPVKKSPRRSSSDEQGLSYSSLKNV
As to the kind of experiment: cell-based or functional assay.

Assay [3] addresses T3, recombinant human IL1RAP protein, extracellular domain His-tagged (Sino Biological, Cat #10121-H08H) (human, UniProt Q9NPH3 21-367).
T3 construct: extracellular domain; Bought protein; The Octet analyte is printed as huIL1RAP-His (Sino Biological, lot MB08MA1301) without a catalogue number; also called huIL1RAP-His; hIL1RAP; not shown: His tag
T3 sequence (looked up): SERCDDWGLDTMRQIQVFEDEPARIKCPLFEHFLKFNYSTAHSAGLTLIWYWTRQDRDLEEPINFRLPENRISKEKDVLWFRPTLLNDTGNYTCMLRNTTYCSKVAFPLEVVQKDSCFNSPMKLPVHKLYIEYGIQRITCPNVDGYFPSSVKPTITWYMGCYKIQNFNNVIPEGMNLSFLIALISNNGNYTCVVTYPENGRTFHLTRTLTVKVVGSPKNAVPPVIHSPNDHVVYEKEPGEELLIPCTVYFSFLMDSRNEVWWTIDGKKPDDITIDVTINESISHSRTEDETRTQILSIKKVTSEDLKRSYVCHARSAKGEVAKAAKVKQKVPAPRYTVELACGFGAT
As to the kind of experiment: Octet BLI; mAb captured on anti-mouse IgG Fc sensor; huIL1RAP-His analyte. Here is the method:
as §1, §2

Assay [4] addresses T4, recombinant mouse IL1RAP protein (Sino Biological, Cat #52657-M08H) (mouse, UniProt Q61730 21-359).
T4 construct: Bought protein
T4 sequence (looked up): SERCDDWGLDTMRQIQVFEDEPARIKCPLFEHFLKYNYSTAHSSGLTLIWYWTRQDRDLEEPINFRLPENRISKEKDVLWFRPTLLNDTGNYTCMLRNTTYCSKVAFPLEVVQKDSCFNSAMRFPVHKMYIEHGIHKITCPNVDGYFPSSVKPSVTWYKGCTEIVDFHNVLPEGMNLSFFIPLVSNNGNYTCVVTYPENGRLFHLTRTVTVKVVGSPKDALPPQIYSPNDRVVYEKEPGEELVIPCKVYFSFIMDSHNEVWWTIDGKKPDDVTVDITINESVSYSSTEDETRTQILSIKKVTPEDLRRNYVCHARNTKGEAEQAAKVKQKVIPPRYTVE
As to the kind of experiment: cell-free ELISA, mouse IL1RAP coated; data not shown. As to the method: Recombinant human or mouse IL1RAP proteins (Sino Biological, Beijing, China; Cat #10121-H08H and Sino Biological, Cat #52657-M08H respectively) were diluted in PBS, pH 7.4 at concentration of 1 μg/ml, coated on high-binding 384-well clear plates and incubated overnight at 4° C. Following, plates were washed 3× with 0.05% Tween-20 in PBS, pH 7.5 and then blocked with 1% BSA in PBS for 1 hour at room temperature. After 3× washes, wells were incubated with each antibody at the highest concentration of 100 nM followed by seven serial half log dilutions (in 1% BSA and 0.05% Tween-20 in PBS) for 1 hour at room temperature. Plates were then washed 3× and incubated with […] detection antibody (Medna, TX, USA; Cat #D8212, 0.5 μg/ml diluted in 0.02% Tween-20 in PBS). After 5× washes, Supersignal ELISA Pico substrate (Thermofisher, MA, USA; Cat #37069) was applied to wells and chemiluminescent signal was read on Sprectramax L for 200 ms/well. Similarly, detection with specific κ and λ antibodies was conducted to define light chain isotyping.

The target in assay [5] is T2, IL1RAP on HEK-Blue IL1β / HEK-Blue IL33 …. In words: cell-based or functional assay. This is another data set of the same source.

The source of these data is US20240392013A1 (STELEXIS THERAPEUTICS, published 2024).

B1: STLX2016 (antibody, V domains shown)
VH: QVQLQESGPGLVKPSETLSLTCTVSGGSISSYFWNWIRQPPGKGLEWIGYGHYSGNSNHNPSLKSRVTISVDMSKNQFSLKMSSVTAADTAMYYCAREGLHDAFDIWGQGTMVTVSS
VL: not shown
notes: Purified from hybridoma of immunized Alivamab mice; intact IgG; captured on anti-mouse IgG Fc sensors in Octet; lambda light chain; also called 74804_16M09A
As to B1, in assay [1], the Kd worked out at 3.94 nM, the Response is 0.199, the koff came to 0.004 s⁻¹ and the kon stood at 1.01e+06 M⁻¹ s⁻¹. Moreover, in assay [2], the “IC50, HEK-BlueIL1β NFκB Reporter Assay” value is 8.05e-10 M (implied; unit not printed) and the “Max % Inhibition at 200 nM, HEK-BlueIL1β NFκB Reporter Assay” value amounted to 100%. In assay [3], the Kd came out at 0.834 nM, the Response is 0.257, the koff is 0.000411 s⁻¹ and the kon was determined as 493000 M⁻¹ s⁻¹. The binding result in assay [4] was “no binding (tested: 100 nM)”. For the same molecule, in assay [5], the “IC50, HEK-BlueIL33 NFκB Reporter Assay” value was 7.66e-09 M (implied; unit not printed) and the “Max % Inhibition at 200 nM, HEK-BlueIL33 NFκB Reporter Assay” value was found to be 76%.

B2: STLX2021 (antibody, V domains shown)
VH: EVQVVESGGGLVKPGGSLRLSCAASGFIFSKAWMSWVRQAPGKGLEWVGRIKSKTDGGTTDYAAPVKGRFTISRDDSKNTLYLQMNSLKTEDTAVYYCTTGGYVFDYWGQGALVTVSS
VL: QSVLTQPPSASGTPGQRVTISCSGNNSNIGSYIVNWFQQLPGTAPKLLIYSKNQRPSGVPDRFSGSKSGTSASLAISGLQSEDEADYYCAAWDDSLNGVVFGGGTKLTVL
notes: Purified from hybridoma of immunized Alivamab mice; intact IgG; captured on anti-mouse IgG Fc sensors in Octet; lambda light chain; also called 74804_21D11A
In assay [1], B2 displayed a Kd of 10.2 nM, a Response of 0.232, a koff of 0.00259 s⁻¹ and a kon of 254000 M⁻¹ s⁻¹. In assay [2], the “IC50, HEK-BlueIL1β NFκB Reporter Assay” value was 5.32e-10 M (implied; unit not printed) and the “Max % Inhibition at 200 nM, HEK-BlueIL1β NFκB Reporter Assay” value came out at 101%. In assay [3], the Kd was 2.19 nM, the Response is 0.249, the koff is 0.000478 s⁻¹ and the kon came out at 218000 M⁻¹ s⁻¹. Besides, the binding result in assay [4] is “no binding (tested: 100 nM)”. Moreover, in assay [5], the “IC50, HEK-BlueIL33 NFκB Reporter Assay” value was 3.54e-09 M (implied; unit not printed) and the “Max % Inhibition at 200 nM, HEK-BlueIL33 NFκB Reporter Assay” value was determined as 85%.

B3: STLX2005 (antibody, V domains shown)
VH: EVQLVDSGGGLVKPGGSLRLSCAATGFTFSNVWMSWVRQGSGKGLEWVGRIKSKTDGGTIDYAAPVKGRFTISRDDPKNTLYLQMNSLKTEDTAVYYCTTGELLGFDYWGQGTLVTVSS
VL: DIVMTQSPLSLPVTPGEPASISCRSGQSLLHNNGFNCLAWYLQKPGQSPQLLIYLGSNRASGVPDRFSGSGSGTDFTLKISRVEAEDVGVFYCMQTLQTPITFGQGTRLEIK
notes: Purified from hybridoma of immunized Alivamab mice; intact IgG; captured on anti-mouse IgG Fc sensors in Octet; kappa light chain; also called 74804_05B24A
In assay [1], B3 showed a Kd of 2.1 nM, a Response of 0.3, a koff of 0.000563 s⁻¹ and a kon of 268000 M⁻¹ s⁻¹. In assay [2], the “IC50, HEK-BlueIL1β NFκB Reporter Assay” value was 4.46e-10 M (implied; unit not printed) and the “Max % Inhibition at 200 nM, HEK-BlueIL1β NFκB Reporter Assay” value turned out to be 99%. Also, in assay [3], the Kd was 1.67 nM, the Response stood at 0.268, the koff was 0.000491 s⁻¹ and the kon came out at 294000 M⁻¹ s⁻¹. Also, the binding result in assay [4] was “no binding (tested: 100 nM)”. Also, in assay [5], the “IC50, HEK-BlueIL33 NFκB Reporter Assay” value is 2.72e-09 M (implied; unit not printed) and the “Max % Inhibition at 200 nM, HEK-BlueIL33 NFκB Reporter Assay” value was 85%.

B4: STLX2045 (antibody, V domains shown)
VH: EVQLVESGGGLVKPGGSLRLACAATGFTFSNVWMSWVRQGSGKGLEWVGRIKSKADGGTIDYAAPVKGRFTISRDDSKNTLYLQMNSLKTEDTAMYYCTTGELLGFDYWGQGTLVTVSS
VL: DIVMTQSPLSLPVTPGEPASISCRSGQSLLHSNGFNCLAWYLQKPGQSPQLLIYLGSNRASGVPDRFSGSGSGTDFTLKISRVEAEDVGVYYCMQTLQTPITFGQGTRLEIK
notes: Purified from hybridoma of immunized Alivamab mice; intact IgG; captured on anti-mouse IgG Fc sensors in Octet; kappa light chain; also called 74804_45C18A
In assay [1], B4 showed a Kd of 0.863 nM, a Response of 0.277, a koff of 0.000291 s⁻¹ and a kon of 338000 M⁻¹ s⁻¹. Further, in assay [2], the “IC50, HEK-BlueIL1β NFκB Reporter Assay” value was 1.93e-10 M (implied; unit not printed) and the “Max % Inhibition at 200 nM, HEK-BlueIL1β NFκB Reporter Assay” value is 100%. Further, in assay [3], the Kd was found to be 0.648 nM, the Response stood at 0.261, the koff came out at 0.000273 s⁻¹ and the kon amounted to 422000 M⁻¹ s⁻¹. Also, the binding result in assay [4] is “no binding (tested: 100 nM)”. Also, in assay [5], the “IC50, HEK-BlueIL33 NFκB Reporter Assay” value is 1.37e-09 M (implied; unit not printed) and the “Max % Inhibition at 200 nM, HEK-BlueIL33 NFκB Reporter Assay” value stood at 98%.

B5: STLX2027 (antibody, V domains shown)
VH: EVQLVESGGGLVKPGGSLRLSCAASGFTFITYSMNWVRQAPGKGLEWVSSISSISSYIYYADSVKGRFTISRDNAKNSLYLQMDSLRAEDSAVYYCAREGIVGPTGYFDSWGQGTLVTVSS
VL: QSVLTQPPSVSAAPGQKVTISCSGSSSNIGNHYVSWYQQLPGTAPKLLIYDNNKRPSGIPDRFSGSKSGTSATLGITGLQTGDEADYYCGTWDSRLSAYWVFGGGTKLTVL
notes: Purified from hybridoma of immunized Alivamab mice; intact IgG; captured on anti-mouse IgG Fc sensors in Octet; lambda light chain; also called 74804_27I24A
In the case of B5, in assay [1], the Kd stood at 2.82 nM, the Response was determined as 0.242, the koff turned out to be 0.00107 s⁻¹ and the kon was found to be 380000 M⁻¹ s⁻¹. In assay [2], the “IC50, HEK-BlueIL1β NFκB Reporter Assay” value was 1.96e-09 M (implied; unit not printed) and the “Max % Inhibition at 200 nM, HEK-BlueIL1β NFκB Reporter Assay” value is 100%. Moreover, in assay [3], the Kd is 2.13 nM, the Response was 0.229, the koff was found to be 0.000747 s⁻¹ and the kon worked out at 350000 M⁻¹ s⁻¹. Besides, the binding result in assay [4] is reported as “no binding (tested: 100 nM)”. Moreover, in assay [5], the “IC50, HEK-BlueIL33 NFκB Reporter Assay” value is 8.31e-09 M (implied; unit not printed) and the “Max % Inhibition at 200 nM, HEK-BlueIL33 NFκB Reporter Assay” value is 86%.
